For one substance, stoichiometry N results are on record in paper PMC2266617.

In the experiment the target is Kv4.2-T1 domain (tetramerization domain of Kv4.2) with a poly-His tag at the NH2 terminus. As to the kind of experiment: SEC.

Kv4.2-T1 domain (tetramerization domain of Kv4.2) with a poly-His tag at the NH2 terminus, sequence (Q63881 whole entry, the tested form may be a part): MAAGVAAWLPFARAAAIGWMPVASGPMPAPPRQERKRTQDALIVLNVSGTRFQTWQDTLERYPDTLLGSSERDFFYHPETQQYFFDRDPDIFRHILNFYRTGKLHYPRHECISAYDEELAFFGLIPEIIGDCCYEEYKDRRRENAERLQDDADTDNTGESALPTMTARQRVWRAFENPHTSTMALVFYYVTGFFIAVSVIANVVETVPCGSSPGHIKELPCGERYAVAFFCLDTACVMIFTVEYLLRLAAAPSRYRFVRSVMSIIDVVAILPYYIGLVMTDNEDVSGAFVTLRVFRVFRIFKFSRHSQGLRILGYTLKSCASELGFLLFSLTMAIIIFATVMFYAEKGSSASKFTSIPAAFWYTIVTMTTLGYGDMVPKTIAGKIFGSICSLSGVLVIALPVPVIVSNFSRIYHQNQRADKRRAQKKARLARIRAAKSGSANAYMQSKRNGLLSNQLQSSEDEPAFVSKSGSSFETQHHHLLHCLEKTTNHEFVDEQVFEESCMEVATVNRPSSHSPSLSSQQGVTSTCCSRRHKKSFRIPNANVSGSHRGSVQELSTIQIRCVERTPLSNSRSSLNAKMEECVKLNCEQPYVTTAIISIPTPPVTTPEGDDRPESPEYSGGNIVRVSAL

The stoichiometry N is the number of molecules, sites or subunits per partner or assembly. The substance “Kv4.2-T1 domain (tetramerization domain of Kv4.2) with a poly-His tag at the NH2 terminus (domain or fragment)” yielded a stoichiometry N of 4.
